From article PMC12197075, “Identification of the Glyceraldehyde-3-Phosphate Dehydrogenase (GeGAPDH) Gene Family in Gastrodia elata Revealing Its Response Characteristics to Low-Temperature and Pathogen Stress” (Plants, 2025) come the findings set out here.

Substrate in the series: O=C[C@H](O)COP(=O)(O)O
Nature of the series: purified protein. The following applies: phosphorylation direction, 0.6 mM NAD+, 50 mM triethanolamine, 50 mM sodium phosphate (printed 'bisphosphate'), 0.2 mM EDTA, 25 °C, pH not stated, G3P 0.25-5 mM.

B1: GeGAPDH1 (Gastrodia elata) (protein)
chain: MASTAFVGSVTPLSEASFPFASSTRAPEPFRVFCWRSRSSEGSSVLCASTSCSKFPLAAISTQKSNRRNFQHTKATATETPPVVSRSSSDGKTKVGINGFGRIGRLVLRIAASRDDIEVVAVNDPFVDAKYMAYMFKYDSTHGTFKGTIKVVDESTIEIDGKRIAVTSKRDPSEITWSDFGAEYVVESSGVFTTMDKASAHLKGGAKKVVISAPSADAPMFVVGVNEQMYQPHMNIVSNASCTTNCLALLAKVVHEEFGIVEGLMTTVHATTATQKTVDGPSMKDWRGGRGASQNIIPSSTGAAKAVGKVLPELNGKLTGMAFRVPTTNVSVVDLTCRLANDASYEDVKAAVRAASEGCLKGILGYTDEDVVSNDFIGDSRSSIFDAKAGIGLGTNFMKLVSWYDNEWGYSNRVLDLIQHVARVCAHK
Take B1: the Km (commonly the substrate concentration at which the rate is half of its maximum) worked out at 312 µM.
